Common to all, as to experiment: FRET or BRET; FRET efficiency by flow cytometry in co-transfected HEK-293T cells 24 h post-transfection; donor mCerulean fusion, acceptor mEYFP fusion; Cer alone as negative control
(In general: In BRET a luciferase serves as donor, and the signal depends on an acceptor being close.)

Assay [1] has as its target EYFP-Hsp26 (Drosophila melanogaster) (UniProt P02517).
The target of assay [2] is EYFP-Pen (Drosophila melanogaster) (UniProt P52295).
Assay [3] addresses EYFP-Tsn (Drosophila melanogaster).

UniProt P02517, sequence (P02517 whole entry): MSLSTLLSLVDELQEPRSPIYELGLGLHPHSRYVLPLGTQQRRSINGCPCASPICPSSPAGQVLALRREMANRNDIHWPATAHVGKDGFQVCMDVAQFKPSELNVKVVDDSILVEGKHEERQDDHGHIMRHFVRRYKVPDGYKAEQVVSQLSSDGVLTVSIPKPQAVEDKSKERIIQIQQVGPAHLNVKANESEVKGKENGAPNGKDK
UniProt P52295, sequence (P52295 whole entry): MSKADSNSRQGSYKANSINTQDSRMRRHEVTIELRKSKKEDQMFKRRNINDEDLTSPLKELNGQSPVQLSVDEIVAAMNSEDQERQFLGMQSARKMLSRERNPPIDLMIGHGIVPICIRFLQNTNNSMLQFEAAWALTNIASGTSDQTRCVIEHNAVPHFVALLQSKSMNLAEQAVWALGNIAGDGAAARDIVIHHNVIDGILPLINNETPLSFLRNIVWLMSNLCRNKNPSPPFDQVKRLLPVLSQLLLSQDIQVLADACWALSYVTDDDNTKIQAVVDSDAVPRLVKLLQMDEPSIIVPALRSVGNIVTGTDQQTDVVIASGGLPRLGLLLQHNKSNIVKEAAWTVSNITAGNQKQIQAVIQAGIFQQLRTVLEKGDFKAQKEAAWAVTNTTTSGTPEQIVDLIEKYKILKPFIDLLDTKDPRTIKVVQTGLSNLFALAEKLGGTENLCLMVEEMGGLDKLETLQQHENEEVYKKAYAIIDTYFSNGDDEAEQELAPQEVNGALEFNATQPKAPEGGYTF

As to “Cer-NtFT4 (mCerulean fusion of NtFT4) (natural protein)”, the FRET efficiency in assay [1] was determined as 13.8%; in assay [2], 7.9%; in assay [3], 3.8%.

The values above are taken from paper PMC9037272.
